{"source": "patent US20060115870", "biological_target": "T1, Long S6 substrate peptide (32 amino-acid)", "T1 chain": "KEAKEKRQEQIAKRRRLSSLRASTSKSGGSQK", "data": [{"protein": "Human recombinant Rho kinase (ROKα/ROCK-II, amino acids 11-552), human active, catalog #14-451, Upstate USA, Inc. (protein) PGAPETAPGDGAGASRQRKLEALIRDPRSPINVESLLDGLNSLVLDLDFPALRKNKNIDNFLNRYEKIVKKIRGLQMKAEDYDVVKVIGRGAFGEVQLVRHKASQKVYAMKLLSKFEMIKRSDSAFFWEERDIMAFANSPWVVQLFYAFQDDRYLYMVMEYMPGGDLVNLMSNYDVPEKWAKFYTAEVVLALDAIHSMGLIHRDVKPDNMLLDKHGHLKLADFGTCMKMDETGMVHCDTAVGTPDYISPEVLKSQGGDGFYGRECDWWSVGVFLYEMLVGDTPFYADSLVGTYSKIMDHKNSLCFPEDAEISKHAKNLICAFLTDREVRLGRNGVEEIRQHPFFKNDQWHWDNIRETAAPVVPELSSDIDSSNFDDIEDDKGDVETFPIPKAFVGNQLPFIGFTYYRENLLLSDSPSCRENDSIQSRKNEESQEIQKKLYTLEEHLSNEMQAKEELEQKCKSVNTRLEKTAKELEEEITLRKSVESALRQLEREKALLQHKNAEYQRKADHEADKKRNLENDVNSLKDQLEDLKKRNQNSQI", "values": [{"measurement": "Maximum DPMs found in phosphorylated substrate (i.e. product)", "result": "52,557±2,058 (n=14) (0.22% of total added DPMs)"}, {"measurement": "Net fold phosphorylation of substrate (33P incorporation, filter mat kinase assay)", "result": "4.4-fold above basal blanks (n=14 experiments; 42 separate assay determinations)"}]}]}
